Here are results for one protein from doi:10.1101/2023.02.14.528348v1.

The Km is the concentration of substrate that gives half-maximal velocity.

Substrate in this series: C[C@H](N)C(=O)N[C@@H](C)C(=O)O
In words: proton-coupled uptake, pyranine fluorescence assay in proteoliposomes. The series is classed as biochemical, Escherichia coli. The conditions noted are these: valinomycin / potassium gradient driven membrane potential.

B1: DtpB (Escherichia coli K-12) (protein)
chain: MNTTTPMGMLQQPRPFFMIFFVELWERFGYYGVQGVLAVFFVKQLGFSQEQAFVTFGAFAALVYGLISIGGYVGDHLLGTKRTIVLGALVLAIGYFMTGMSLLKPDLIFIALGTIAVGNGLFKANPASLLSKCYPPKDPRLDGAFTLFYMSINIGSLIALSLAPVIADRFGYSVTYNLCGAGLIIALLVYIACRGMVKDIGSEPDFRPMSFSKLLYVLLGSVVMIFVCAWLMHNVEVANLVLIVLSIVVTIIFFRQAFKLDKTGRNKMFVAFVLMLEAVVFYILYAQMPTSLNFFAINNVHHEILGFSINPVSFQALNPFWVVLASPILAGIYTHLGNKGKDLSMPMKFTLGMFMCSLGFLTAAAAGMWFADAQGLTSPWFIVLVYLFQSLGELFISALGLAMIAALVPQHLMGFILGMWFLTQAAAFLLGGYVATFTAVPDNITDPLETLPVYTNVFGKIGLVTLGVAVVMLLMVPWLKRMIATPESH
As to B1, the Km came out at 0.29 ± 0.04 mM.
